Results published in patent publication US20040241165A1 (Takeda / Millennium, published 2004).
No end group written: not given here.

Legend:
[1] = biological target: human-type OT7T022 (hOT7T022) G protein-coupled receptor protein (human) (UniProt Q9GZQ6); assay: binding inhibition: displacement of 125I-Tyr-hRFRP-3(8) from membrane fraction of human-type OT7T022-expressing CHO cells
[2] = biological target: human-type OT7T022 (hOT7T022) G protein-coupled receptor protein (human) (UniProt Q9GZQ6); assay: cell-based or functional assay
[3] = biological target: T1, human-type OT7T022 (hOT7T022) G protein-coupled receptor protein (human, UniProt Q9GZQ6 1-430); assay: cell-based or functional assay
[4] = biological target: T1, human-type OT7T022 (hOT7T022) G …; assay: binding inhibition: displacement of 125I-Tyr-hRFRP-3(8) from membrane fraction of human-type OT7T022-expressing CHO cells
Experimental: An assay buffer [50 mM Tris-HCl, pH 7.5, 5 mM EDTA, 0.1% bovine serum albumin (Sigma), 0.5 mM PMSF (Wako Purechemical Industries), 20 μg/ml leupeptin (Peptide Institute, Inc.), 0.1 μg/ml pepstatin A (Peptide Institute, Inc.), 4 μg/ml E64 (Peptide Institute, Inc.) and 10 mM MgCl₂] was prepared. With this buffer, the membrane fraction from human-type OT7T022-expressing CHO cells was diluted to give a concentration of 1 μg/25 μl. […] Sample solutions prepared, NSB and the assay buffer were dispensed into polypropylene 96-well plates in quadruplicate as total 50 μl/well. […] Twenty-five microliter of the membrane fraction solution from human-type OT7T022-expressing CHO cells was added thereto, agitated with a plate mixer and incubated at room temperature for 1.5 hr. Using a cell harvester for 96-well plates, the contents of each well were adsorbed onto a filter unit (GF/C, treated with polyethylene imine) pre-moisturized with washing buffer (50 mM Tris-HCl, pH 7.5). After washing 5 times with the washing buffer, the adsorbate was dried thoroughly. The lower part of the filter unit was sealed. Then, 50 μl of liquid scintillator was added to each well and the upper part of the filter unit was sealed. Radioactivity was measured with a Top Count (Packard), and data were analyzed in triplicate.

[5] = biological target: T1, human-type OT7T022 (hOT7T022) G …; assay: cell-based or functional assay; remark: listed apart in the source
[6] = biological target: G protein-coupled receptor protein rOT7T022L (rat, UniProt Q9EP86 1-432); assay: cell-based or functional assay
Sequence of G protein-coupled receptor protein rOT7T022L (Q9EP86 whole entry): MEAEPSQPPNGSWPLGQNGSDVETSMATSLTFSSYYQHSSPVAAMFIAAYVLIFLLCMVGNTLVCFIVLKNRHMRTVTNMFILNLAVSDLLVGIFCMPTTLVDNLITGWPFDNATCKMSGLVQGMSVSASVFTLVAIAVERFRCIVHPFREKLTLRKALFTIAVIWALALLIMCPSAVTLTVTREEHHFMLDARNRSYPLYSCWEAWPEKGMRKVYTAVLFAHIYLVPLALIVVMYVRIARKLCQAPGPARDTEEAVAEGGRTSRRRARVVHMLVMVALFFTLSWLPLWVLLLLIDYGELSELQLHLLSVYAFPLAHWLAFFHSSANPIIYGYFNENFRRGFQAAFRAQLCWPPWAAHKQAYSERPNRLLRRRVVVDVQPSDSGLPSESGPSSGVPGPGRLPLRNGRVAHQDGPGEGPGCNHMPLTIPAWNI

T1 sequence (Q9GZQ6 whole entry): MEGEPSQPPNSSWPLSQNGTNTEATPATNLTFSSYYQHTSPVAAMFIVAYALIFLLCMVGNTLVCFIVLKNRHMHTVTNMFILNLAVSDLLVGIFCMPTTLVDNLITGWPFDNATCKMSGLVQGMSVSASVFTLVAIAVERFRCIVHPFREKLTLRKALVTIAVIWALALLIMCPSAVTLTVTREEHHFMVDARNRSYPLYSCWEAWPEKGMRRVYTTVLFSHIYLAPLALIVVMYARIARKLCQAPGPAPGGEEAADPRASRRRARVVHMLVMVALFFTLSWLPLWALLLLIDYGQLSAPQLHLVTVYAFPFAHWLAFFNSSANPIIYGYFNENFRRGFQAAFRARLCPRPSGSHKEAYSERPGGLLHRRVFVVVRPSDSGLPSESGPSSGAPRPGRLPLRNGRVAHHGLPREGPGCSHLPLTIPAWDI
Sequence of human-type OT7T022 (hOT7T022) G protein-coupled receptor protein (human) (Q9GZQ6 whole entry): as above

Row | Molecule | cAMP production inhibition EC50 [3] [nM] | IC50 [4] [nM] | ED50, inhibition of intracellular cAMP increase by forskolin treatment [5] [nM] | also measured
1 | hRFRP-3 (28) (second row with this label, last row of Table 1) (peptide) | – | – | – | IC50 [1]: 1.6 nM; cAMP production inhibition EC50 [2]: 4.1 nM
2 | SAGATANLPLRSGRNMEVSLVRRVPNLPQRF-NH2 (also called hRFRP-3 (31)) [human-type RFRP-3(31)] | 4.8 | 1.3 | – | –
3 | ATANLPLRSGRNMEVSLVRRVPNLPQRF-NH2 (also called hRFRP-3 (28)) [human-type RFRP-3(28)] | 5.1 | 1.1 | – | –
4 | SVTFQELKDWGAKKDIKMSPAPANKVPHSAANLPLRF (ends and bridges not checked) [rRFRP-1-37] | – | – | 30 | –
5 | MPHSFANLPLRF-NH2 [Met-Pro-His-Ser-Phe-Ala-Asn-Leu-Pro-Leu-Arg-Phe-NH2 (MPHSFANLPLRF amide)] | – | – | 4.5 | cAMP production inhibitory effect, IC50 [6]: 0.5 nM
6 | PNLPQRF-NH2 [Pro-Asn-Leu-Pro-Gln-Arg-Phe-NH2: hRFRP-3(7)] | 3.2 | 0.62 | – | –
7 | NLPQRF-NH2 [Asn-Leu-Pro-Gln-Arg-Phe-NH2: hRFRP-3(6)] | 37 | 2.6 | – | –
8 | PQRF-NH2 [PQRF amide (Pro-Gln-Arg-Phe-NH2)] | – | – | ≥ 1000 | –
9 | SLNFEELKDWGPKNVIKMSTPAVNKMPHSFANLPLRF-NH2 [hRFRP-1-37] | – | – | 21 | –
